Results taken from PMC9484695, “The evolutionary conserved proteins CEP90, FOPNL, and OFD1 recruit centriolar distal appendage proteins to initiate their assembly” (PLoS Biology, 2022).

Target: T1, CEP90 (overexpressed) (UniProt Q8WXW3 1-757)
T1 construct: CEP90 (PIBF1), cDNA clone from Dharmacon horizondiscovery; no tag is named; also called overexpressed CEP90; source: U2OS, transfected (lipofectamine 2000), in cells
T1 sequence (looked up): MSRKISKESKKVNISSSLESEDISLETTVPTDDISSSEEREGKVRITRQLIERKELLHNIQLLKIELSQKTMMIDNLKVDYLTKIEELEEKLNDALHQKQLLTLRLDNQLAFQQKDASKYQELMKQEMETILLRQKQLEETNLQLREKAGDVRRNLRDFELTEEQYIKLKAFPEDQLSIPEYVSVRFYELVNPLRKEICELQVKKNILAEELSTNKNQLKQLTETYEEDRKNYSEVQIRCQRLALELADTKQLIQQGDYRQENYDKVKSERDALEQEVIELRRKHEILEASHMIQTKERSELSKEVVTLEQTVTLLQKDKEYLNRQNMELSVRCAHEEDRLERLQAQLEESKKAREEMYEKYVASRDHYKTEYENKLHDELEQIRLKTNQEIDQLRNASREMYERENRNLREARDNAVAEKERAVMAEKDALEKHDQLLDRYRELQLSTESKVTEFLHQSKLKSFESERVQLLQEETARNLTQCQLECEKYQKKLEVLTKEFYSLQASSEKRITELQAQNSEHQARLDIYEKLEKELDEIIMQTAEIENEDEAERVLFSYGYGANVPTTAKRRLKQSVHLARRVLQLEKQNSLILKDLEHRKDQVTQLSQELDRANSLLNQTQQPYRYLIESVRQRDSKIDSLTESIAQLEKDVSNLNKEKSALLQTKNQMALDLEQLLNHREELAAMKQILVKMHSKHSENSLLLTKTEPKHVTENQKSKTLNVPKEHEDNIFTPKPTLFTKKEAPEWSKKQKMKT
Test: microtubule recruitment (displacement) assay; U2OS cotransfected with MNR-GFP and CEP90, OFD1 mCherry or myc-FOPNL, 24 h; endogenous OFD1, CEP90, CEP83, CEP89, CEP164 stained; percent of cells with the endogenous protein on microtubules, 100 < N < 150 cells per condition, 3 experiments
Details: partners not purified

B1: CEP83 (endogenous) (natural protein, human (endogenous in U2OS), UniProt Q9Y592 1-701, looked up)
chain: MVVSTFTDMDTFPNNFPPGGDSGLTGSQSEFQKMLIDERLRCEHHKANYQTLKAEHTRLQNEHVKLQNELKHLFNEKQTQQEKLQLLLEELRGELVEKTKDLEEMKLQILTPQKLELLRAQIQQELETPMRERFRNLDEEVEKYRAVYNKLRYEHTFLKSEFEHQKEEYARILDEGKIKYESEIARLEEDKEELRNQLLNVDLTKDSKRVEQLAREKVYLCQKLKGLEAEVAELKAEKENSEAQVENAQRIQVRQLAEMQATVRSLEAEKQSANLRAERLEKELQSSSEQNTFLINKLHKAEREINTLSSKVKELKHSNKLEITDIKLETARAKSELERERNKIQSELDGLQSDNEILKAAVEHHKVLLVEKDRELIRKVQAAKEEGYQKLVVLQDEKLELENRLADLEKMKVEHDVWRQSEKDQYEEKLRASQMAEEITRKELQSVRLKLQQQIVTIENAEKEKNENSDLKQQISSLQIQVTSLAQSENDLLNSNQMLKEMVERLKQECRNFRSQAEKAQLEAEKTLEEKQIQWLEEKHKLHERITDREEKYNQAKEKLQRAAIAQKKRKSLHENKLKRLQEKVEVLEAKKEELETENQVLNRQNVPFEDYTRLQKRLKDIQRRHNEFRSLILVPNMPPTASINPVSFQSSAMVPSMELPFPPHMQEEQHQRELSLLRKRLEELETTQRKQLEELGSSGE
notes: CEP83, endogenous human protein; also called endogenous CEP83; source: endogenous, U2OS cells
Q: B1 was tested. Which “percent of cells with the endogenous protein on microtubules” value did it give?
A: 66.7%

B2: OFD1 (endogenous) (natural protein, UniProt O75665 1-1012, looked up)
chain: MMAQSNMFTVADVLSQDELRKKLYQTFKDRGILDTLKTQLRNQLIHELMHPVLSGELQPRSISVEGSSLLIGASNSLVADHLQRCGYEYSLSVFFPESGLAKEKVFTMQDLLQLIKINPTSSLYKSLVSGSDKENQKGFLMHFLKELAEYHQAKESCNMETQTSSTFNRDSLAEKLQLIDDQFADAYPQRIKFESLEIKLNEYKREIEEQLRAEMCQKLKFFKDTEIAKIKMEAKKKYEKELTMFQNDFEKACQAKSEALVLREKSTLERIHKHQEIETKEIYAQRQLLLKDMDLLRGREAELKQRVEAFELNQKLQEEKHKSITEALRRQEQNIKSFEETYDRKLKNELLKYQLELKDDYIIRTNRLIEDERKNKEKAVHLQEELIAINSKKEELNQSVNRVKELELELESVKAQSLAITKQNHMLNEKVKEMSDYSLLKEEKLELLAQNKLLKQQLEESRNENLRLLNRLAQPAPELAVFQKELRKAEKAIVVEHEEFESCRQALHKQLQDEIEHSAQLKAQILGYKASVKSLTTQVADLKLQLKQTQTALENEVYCNPKQSVIDRSVNGLINGNVVPCNGEISGDFLNNPFKQENVLARMVASRITNYPTAWVEGSSPDSDLEFVANTKARVKELQQEAERLEKAFRSYHRRVIKNSAKSPLAAKSPPSLHLLEAFKNITSSSPERHIFGEDRVVSEQPQVGTLEERNDVVEALTGSAASRLRGGTSSRRLSSTPLPKAKRSLESEMYLEGLGRSHIASPSPCPDRMPLPSPTESRHSLSIPPVSSPPEQKVGLYRRQTELQDKSEFSDVDKLAFKDNEEFESSFESAGNMPRQLEMGGLSPAGDMSHVDAAAAAVPLSYQHPSVDQKQIEEQKEEEKIREQQVKERRQREERRQSNLQEVLERERRELEKLYQERKMIEESLKIKIKKELEMENELEMSNQEIKDKSAHSENPLEKYMKIIQQEQDQESADKSSKKMVQEGSLVDTLQSSDKVESLTGFSHEELDDSW
notes: OFD1, endogenous human protein; source: endogenous: HEK293 Flp-In cells (BioID); Hela Kyoto lysate (co-IP); U2OS cells (microtubule recruitment assay)
Q: How did the “percent of cells with the endogenous protein on microtubules” value turn out when B2 was run?
A: 63.3%
